The values that follow come from patent US20090297535A1 (Ablynx, published 2009).

The target of assay [1] is T1, recombinant human IL6 (human, UniProt P05231 30-212). Put plainly: cell-based or functional assay.
For assay [2], the target named is T1, recombinant human IL6. Put plainly: Alphascreen competition: Nanobody titrated against 3 nM biotinylated human IL6; blocked partner IL6R (1 nM) captured on acceptor beads coated with anti-IL6R MAb BN-12; streptavidin donor beads; readout cps. How it is done: Purified samples of Nanobodies PMP6B6, PMP7G5, PMP7G9 and PMP7G4 were analyzed in Alphascreen for their ability to inhibit the interaction between IL6 and IL6R. In this assay, various concentrations of anti-IL6 Nanobodies ranging from 1 uM to 10 pM were incubated with 3 nM biotinylated human IL6 for 15 min in a 384-wells plate. Subsequently a mixture of IL6R (1 nM) and acceptor beads (20 ug/ml) coated with anti-IL6R MAb BN-12 (Diaclone) were added and incubated for 30 min. Finally, streptavidin coated donor beads (20 ug/ml) were added. After 1 hour of incubation plates were read on the Envison Alphascreen reader (PerkinElmer). All experiments were performed in duplicate.

Assay [3] concerns the target T1, recombinant human IL6. Put plainly: SPR, Biacore 3000; IL6 amine-coupled on CM5 chip, periplasmic extract injected. The procedure:
Off-rate analysis of Nanobodies binding to IL6 was done by surface plasmon resonance on a Biacore 3000 instrument. Recombinant human IL6 was covalently bound to a CM5 sensor chip via amine coupling at a density of ˜500 RU. Remaining reactive groups were inactivated. Periplasmic extracts prepared from E. coli cells expressing anti-IL6 Nanobodies were diluted 10 or 15-fold and injected for 4 min to allow for binding to IL6 immobilized on the chip. Buffer without Nanobody was sent over the chip for 30 min to allow for spontaneous dissociation of bound Nanobody. The dissociation phase was used to calculate the koff values for each individual Nanobody (table B-1).
On the technique in general: In SPR one partner is held on a chip, and binding of the other changes the refractive index at the surface.

B1: PMP6B6 (VHH)
VHH: QVQLVESAGGLVQPGGSLRLSCAASGIIFSINAMGWYRQAPGKRRELVADIMPYGSTEYADSVKGRFTISRDNAKNTVYLQMNSLKPEDTAVYYCHSYDPRGDDYWGQGTQVTVSS
notes: Monovalent Nanobody
By IC50 is commonly meant the concentration that gives 50% inhibition. The term koff denotes the first-order rate constant of dissociation. Turning to B1, the “IC50, inhibition of proliferation of the murine hybridoma cell line B9 (B9 assay, cell proliferation normalized)” value with recombinant human IL6 [1] amounted to 0.003 nM. For the same molecule, in the assay with recombinant human IL6 [2], the IC50 was determined as 2 nM. Further, the koff in the assay with recombinant human IL6 [3] worked out at 0.000433 s⁻¹.

B2: PMP7G9 (VHH)
VHH: QVQLVESGGGLVQPGGSLRLSCAASGFSLDYYGVGWFRQAPGKEREGVSCISSSDGDTYYADSVKGRFTISRDNAKNTVYLQMNSLKPEDTAVYYCATDLSDYGVCSRWPSPYDYWGQGTQVTVSS
notes: Monovalent Nanobody
As for B2, in the assay with recombinant human IL6 [1], the “IC50, inhibition of proliferation of the murine hybridoma cell line B9 (B9 assay, cell proliferation normalized)” value turned out to be 0.385 nM. Further, in the assay with recombinant human IL6 [2], the IC50 was determined as 3.4 nM. For the same molecule, the koff with recombinant human IL6 [3] amounted to 0.00287 s⁻¹.

B3: PMP7G5 (VHH)
VHH: QVKLEESGGGLVQPGGSLRLSCAASGSISRFNIMGWYRQAPGKQRELVADITNGGTTMYADSVKGRFTISRDNTKNTVYLQMNSLKPEDTAVYYCHTYYPTTGFDDWGQGAQVTVSS
notes: Monovalent Nanobody
With B3, the “IC50, inhibition of proliferation of the murine hybridoma cell line B9 (B9 assay, cell proliferation normalized)” value with recombinant human IL6 [1] worked out at 0.017 nM. The IC50 in the assay with recombinant human IL6 [2] stood at 6.1 nM. For the same molecule, the koff with recombinant human IL6 [3] was determined as 0.000412 s⁻¹.

B4: PMP7G4 (VHH)
VHH: AVQLVESGGGLVQPGGSLRLSCAASGSIFSRLAMDWYRQAPGKQRELVASISRSGTTMAADSVKGRFTISRDNAENMVYLQMNSLKPEDTAVYVCMAFDGYSGSDYWGRGTQVTVSS
notes: Monovalent Nanobody
Turning to B4, the “IC50, inhibition of proliferation of the murine hybridoma cell line B9 (B9 assay, cell proliferation normalized)” value in the assay with recombinant human IL6 [1] turned out to be 0.421 nM. Further, in the assay with recombinant human IL6 [2], the IC50 is 2.5 nM. The koff with recombinant human IL6 [3] was 0.00208 s⁻¹.

B5: PMP6E10 (VHH)
VHH: QVKLEESGGGLVQAGGSLRLSCVVSGRTFSPYTIAWFRQAPGKEREFVTTIIGSDRSTDLDGDTYYADSVRGRFTISRNDAKNTVFLQMSSLKPEDTAVYYCALTGKGYVFTPNEYDYWGQGTQVTVSS
notes: Monovalent Nanobody
In the case of B5, the “IC50, inhibition of proliferation of the murine hybridoma cell line B9 (B9 assay, cell proliferation normalized)” value in the assay with recombinant human IL6 [1] is 1.07 nM. Moreover, the koff with recombinant human IL6 [3] is 0.000545 s⁻¹.
